# In the RNAGym collection of RNA variant scans (doi:10.1093/molbev/msab373):
# B1: Azoarcus group I ribozyme (parent)
# chain: GUGCCUUGCGCCGGGAAACCACGCAAGGGAUGGUGUCAAAUUCGGCGAAACCUAAGCGCCCGCCCGGGCGUAUGGCAACGCCGAGCCAAGCUUCGGCGCCUGCGCCGAUGAAGGUGUAGAGACUAGACGGCACCCACCUAAGGCAAACGCUAUGGUGAAGGCAUAGUCCAGGGAGUGGCGAAAGUCACACAAACCGG
# Variants of: B1
# Assay: reverse-splicing fitness (ratio to wild type); higher = more active; in vitro selection; Mg2+ level not given
# Method in brief: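 An in vitro group I ribozyme library with randomized positions was T7-transcribed and gel-purified. In triplicate, 10 pmol RNA in EPPS pH 7.5 was reacted with 50 pmoles of a 30-nt RNA substrate for 1 h at 37 °C across several added MgCl2 levels (1–48 mM), then stopped with EDTA. Products were reverse transcribed from a substrate-complementary primer, PCR-amplified and sequenced (HiSeq 4000). Fitness is a variant's read proportion after selection over that before, normalised to wild type.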
row,Variant,reverse-splicing fitness
1,C82G A111G A120U A145U C150A C169U U176A,0.00305
2,C82G A111G A120U A145U C150A C169U U176C,0.0029
3,C82G A111G A120U A145U C150A C169U U176G,0.00215
4,C82G A111G A120U A145U C150A U176A,0.00578
5,C82G A111G A120U A145U C150A U176C,0.00553
6,C82G A111G A120U A145U C150A U176G,0.00244
7,C82G A111G A120U A145U C150G,0.00894
8,C82G A111G A120U A145U C150G C169A,0.00331
9,C82G A111G A120U A145U C150G C169A U176A,0.00415
10,C82G A111G A120U A145U C150G C169A U176C,0.00298
11,C82G A111G A120U A145U C150G C169A U176G,0.00219
12,C82G A111G A120U A145U C150G C169G,0.003
13,C82G A111G A120U A145U C150G C169G U176A,0.0025
14,C82G A111G A120U A145U C150G C169G U176C,0.00256
15,C82G A111G A120U A145U C150G C169G U176G,0.00197
16,C82G A111G A120U A145U C150G C169U,0.00254
17,C82G A111G A120U A145U C150G C169U U176A,0.00283
18,C82G A111G A120U A145U C150G C169U U176C,0.00309
19,C82G A111G A120U A145U C150G C169U U176G,0.00239
20,C82G A111G A120U A145U C150G U176A,0.00457
21,C82G A111G A120U A145U C150G U176C,0.00556

row,Variant,reverse-splicing fitness
1,C82G A111G A120U A145U C150G U176G,0.00264
2,C82G A111G A120U A145U C150U,0.04
3,C82G A111G A120U A145U C150U C169A,0.00289
4,C82G A111G A120U A145U C150U C169A U176A,0.00294
5,C82G A111G A120U A145U C150U C169A U176C,0.00239
6,C82G A111G A120U A145U C150U C169A U176G,0.00186
7,C82G A111G A120U A145U C150U C169G,0.00324
8,C82G A111G A120U A145U C150U C169G U176A,0.0031
9,C82G A111G A120U A145U C150U C169G U176C,0.00343
10,C82G A111G A120U A145U C150U C169G U176G,0.00218
11,C82G A111G A120U A145U C150U C169U,0.00393
12,C82G A111G A120U A145U C150U C169U U176A,0.00291
13,C82G A111G A120U A145U C150U C169U U176C,0.00263
14,C82G A111G A120U A145U C150U C169U U176G,0.00196
15,C82G A111G A120U A145U C150U U176A,0.0117
16,C82G A111G A120U A145U C150U U176C,0.0184
17,C82G A111G A120U A145U C150U U176G,0.00444
18,C82G A111G A120U A145U C169A,0.00239
19,C82G A111G A120U A145U C169A U176A,0.00206
20,C82G A111G A120U A145U C169A U176C,0.00207
21,C82G A111G A120U A145U C169A U176G,0.0018

row,Variant,reverse-splicing fitness
1,C82G A111G A120U A145U C169G,0.00363
2,C82G A111G A120U A145U C169G U176A,0.0022
3,C82G A111G A120U A145U C169G U176C,0.00235
4,C82G A111G A120U A145U C169G U176G,0.00156
5,C82G A111G A120U A145U C169U,0.00451
6,C82G A111G A120U A145U C169U U176A,0.00226
7,C82G A111G A120U A145U C169U U176C,0.0031
8,C82G A111G A120U A145U C169U U176G,0.00199
9,C82G A111G A120U A145U U176A,0.0168
10,C82G A111G A120U A145U U176C,0.0296
11,C82G A111G A120U A145U U176G,0.00582
12,C82G A111G A120U C150A,0.00949
13,C82G A111G A120U C150A C169A,0.00558
14,C82G A111G A120U C150A C169A U176A,0.00549
15,C82G A111G A120U C150A C169A U176C,0.00424
16,C82G A111G A120U C150A C169A U176G,0.00223
17,C82G A111G A120U C150A C169G,0.00433
18,C82G A111G A120U C150A C169G U176A,0.00749
19,C82G A111G A120U C150A C169G U176C,0.00399
20,C82G A111G A120U C150A C169G U176G,0.00187
21,C82G A111G A120U C150A C169U,0.00399

row,Variant,reverse-splicing fitness
1,C82G A111G A120U C150A C169U U176A,0.00523
2,C82G A111G A120U C150A C169U U176C,0.00456
3,C82G A111G A120U C150A C169U U176G,0.00229
4,C82G A111G A120U C150A U176A,0.0074
5,C82G A111G A120U C150A U176C,0.00806
6,C82G A111G A120U C150A U176G,0.00368
7,C82G A111G A120U C150G,0.00849
8,C82G A111G A120U C150G C169A,0.00761
9,C82G A111G A120U C150G C169A U176A,0.00788
10,C82G A111G A120U C150G C169A U176C,0.00831
11,C82G A111G A120U C150G C169A U176G,0.00267
12,C82G A111G A120U C150G C169G,0.00678
13,C82G A111G A120U C150G C169G U176A,0.00638
14,C82G A111G A120U C150G C169G U176C,0.00486
15,C82G A111G A120U C150G C169G U176G,0.00263
16,C82G A111G A120U C150G C169U,0.0064
17,C82G A111G A120U C150G C169U U176A,0.00421
18,C82G A111G A120U C150G C169U U176C,0.00723
19,C82G A111G A120U C150G C169U U176G,0.00278
20,C82G A111G A120U C150G U176A,0.00529
21,C82G A111G A120U C150G U176C,0.00821
